Test results as given in paper PMC9482650, “Quantitative fragmentomics allow affinity mapping of interactomes” (Nature Communications, 2022).
Numbering of substitutions follows the chain as printed.

T1: GRIP1_4, Q9Y3R0
T1 sequence (Q9Y3R0 467-571, limits assumed, looked up): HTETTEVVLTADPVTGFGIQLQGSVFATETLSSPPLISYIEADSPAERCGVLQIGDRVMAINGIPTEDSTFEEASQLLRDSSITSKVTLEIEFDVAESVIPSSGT

T2: HTRA4, P83105
T2 sequence (P83105 378-476, limits assumed, looked up): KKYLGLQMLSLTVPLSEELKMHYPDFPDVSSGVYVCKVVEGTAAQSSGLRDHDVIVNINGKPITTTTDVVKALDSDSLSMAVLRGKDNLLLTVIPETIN

T3: APBA3_1, O96018
T3 sequence (O96018 389-490, limits assumed, looked up): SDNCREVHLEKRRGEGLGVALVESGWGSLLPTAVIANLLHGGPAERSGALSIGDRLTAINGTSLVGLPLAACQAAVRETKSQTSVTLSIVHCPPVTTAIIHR

T4: MPP2, Q14168
T4 sequence (Q14168 180-250, limits assumed, looked up): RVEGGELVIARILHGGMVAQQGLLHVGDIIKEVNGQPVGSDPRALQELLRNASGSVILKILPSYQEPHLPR

T5: PDZD2_2, O15018
T5 sequence (O15018 329-429, limits assumed, looked up): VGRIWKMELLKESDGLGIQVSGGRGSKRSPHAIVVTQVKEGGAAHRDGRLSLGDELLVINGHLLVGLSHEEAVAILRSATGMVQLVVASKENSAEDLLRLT

T6: DVL3, Q92997
T6 sequence (Q92997 244-331, limits assumed, looked up): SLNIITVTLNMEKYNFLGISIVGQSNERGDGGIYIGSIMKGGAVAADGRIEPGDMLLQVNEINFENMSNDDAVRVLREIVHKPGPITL

T7: PDZD7_3, Q9H5P4
T7 sequence (Q9H5P4 857-944, limits assumed, looked up): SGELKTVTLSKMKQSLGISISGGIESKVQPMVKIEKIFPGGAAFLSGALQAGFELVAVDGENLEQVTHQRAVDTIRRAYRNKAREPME

T8: FRMPD1, Q5SYB0
T8 sequence (Q5SYB0 52-145, limits assumed, looked up): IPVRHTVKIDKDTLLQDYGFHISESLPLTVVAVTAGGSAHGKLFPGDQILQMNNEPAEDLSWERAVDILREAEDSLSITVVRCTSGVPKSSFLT

T9: LIN7B, Q9HAP6
T9 sequence (Q9HAP6 88-185, limits assumed, looked up): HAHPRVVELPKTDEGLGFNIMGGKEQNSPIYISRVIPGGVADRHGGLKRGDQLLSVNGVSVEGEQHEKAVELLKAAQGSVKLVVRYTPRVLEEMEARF

T10: LIN7C, Q9NUP9
T10 sequence (Q9NUP9 88-185, limits assumed, looked up): T9 sequence (Q9HAP6 88-185, limits assumed, looked up) with A2S, D13E, V35I, V40I, Q65H, S79K, R89K, A96S

T11: LNX2_3, Q8N448
T11 sequence (Q8N448 463-564, limits assumed, looked up): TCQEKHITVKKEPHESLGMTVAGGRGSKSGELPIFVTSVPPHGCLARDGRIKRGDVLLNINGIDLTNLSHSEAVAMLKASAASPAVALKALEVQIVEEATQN


What follows are binders tested against T1, GRIP1_4, Q9Y3R0 (assay: holdup assay). Conditions: plain residues with an end cap or a label only (N-terminal biotin on a linker: ado-ado).
Design: key: below the threshold = too weak to quantify, mostly under pKd 3.1 to 4
In the case of PDGQCTVTEV [RNF146, Q9NTX7], the pKd is reported as “below the threshold”.
With SAKVRTVTSV [RASL11B, Q9BPW5] the pKd was “below the threshold”.

The binders below were run against T2, HTRA4, P83105 (assay: holdup assay). Conditions: plain residues with an end cap or a label only (N-terminal biotin on a linker: ado-ado).
Design: key: below the threshold = too weak to quantify, mostly under pKd 3.1 to 4
Binder PDGQCTVTEV [RNF146, Q9NTX7] has a pKd of 4.36.
Work on SAKVRTVTSV [RASL11B, Q9BPW5] yielded a pKd of 4.06.

Each binder was assayed against T3, APBA3_1, O96018 (assay: holdup assay). Conditions: plain residues with an end cap or a label only (N-terminal biotin on a linker: ado-ado).
Design: key: below the threshold = too weak to quantify, mostly under pKd 3.1 to 4
With PDGQCTVTEV [RNF146, Q9NTX7] the pKd was “below the threshold”.
With SAKVRTVTSV [RASL11B, Q9BPW5] the pKd was “below the threshold”.

Each binder was assayed against DLG4_1, P78352 (assay: holdup assay). Conditions: plain residues with an end cap or a label only (N-terminal biotin on a linker: ado-ado).
Chain of DLG4_1, P78352 (P78352 62-152): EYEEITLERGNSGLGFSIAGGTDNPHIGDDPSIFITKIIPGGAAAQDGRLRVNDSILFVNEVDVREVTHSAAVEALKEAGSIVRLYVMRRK
Design: key: below the threshold = too weak to quantify, mostly under pKd 3.1 to 4
Binder PDGQCTVTEV [RNF146, Q9NTX7] has a pKd of 4.6.
With SAKVRTVTSV [RASL11B, Q9BPW5] the pKd was 4.65.

Each binder was assayed against ARHGEF12, Q9NZN5-2 (assay: holdup assay). Conditions: plain residues with an end cap or a label only (N-terminal biotin on a linker: ado-ado).
Chain of ARHGEF12, Q9NZN5-2 (Q9NZN5 other isoform, or with tags, fused parts or gaps): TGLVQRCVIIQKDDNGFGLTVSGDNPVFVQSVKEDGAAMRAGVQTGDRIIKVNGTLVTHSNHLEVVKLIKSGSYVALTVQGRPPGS
Design: key: below the threshold = too weak to quantify, mostly under pKd 3.1 to 4
Work on PDGQCTVTEV [RNF146, Q9NTX7] yielded a pKd of 4.77.
SAKVRTVTSV [RASL11B, Q9BPW5] showed a pKd of 4.68.

What follows are binders tested against Inadl_9, Q8NI35 (assay: holdup assay). Conditions: plain residues with an end cap or a label only (N-terminal biotin on a linker: ado-ado).
Chain of Inadl_9, Q8NI35 (Q8NI35 1530-1615): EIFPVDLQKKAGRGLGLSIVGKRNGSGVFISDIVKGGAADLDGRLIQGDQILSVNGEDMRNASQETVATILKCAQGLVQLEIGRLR
Design: key: below the threshold = too weak to quantify, mostly under pKd 3.1 to 4
Binder PDGQCTVTEV [RNF146, Q9NTX7] has a pKd of 3.72.
In the case of SAKVRTVTSV [RASL11B, Q9BPW5], the pKd is reported as “below the threshold”.

The binders below were run against T4, MPP2, Q14168 (assay: holdup assay). Conditions: plain residues with an end cap or a label only (N-terminal biotin on a linker: ado-ado).
Design: key: below the threshold = too weak to quantify, mostly under pKd 3.1 to 4
With PDGQCTVTEV [RNF146, Q9NTX7] the pKd was “below the threshold”.
In the case of SAKVRTVTSV [RASL11B, Q9BPW5], the pKd is reported as “below the threshold”.

What follows are binders tested against NHERF4_1, Q86UT5-2 (assay: holdup assay). Conditions: plain residues with an end cap or a label only (N-terminal biotin on a linker: ado-ado).
Chain of NHERF4_1, Q86UT5-2 (Q86UT5 other isoform, or with tags, fused parts or gaps): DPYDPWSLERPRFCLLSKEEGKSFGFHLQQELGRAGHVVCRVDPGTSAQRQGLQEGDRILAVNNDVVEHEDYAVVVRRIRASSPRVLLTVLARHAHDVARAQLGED
Design: key: below the threshold = too weak to quantify, mostly under pKd 3.1 to 4
PDGQCTVTEV [RNF146, Q9NTX7] showed a pKd of 3.89.
For SAKVRTVTSV [RASL11B, Q9BPW5], the pKd was 3.77.

The binders below were run against T5, PDZD2_2, O15018 (assay: holdup assay). Conditions: plain residues with an end cap or a label only (N-terminal biotin on a linker: ado-ado).
Design: key: below the threshold = too weak to quantify, mostly under pKd 3.1 to 4
For PDGQCTVTEV [RNF146, Q9NTX7], the pKd was 4.79.
SAKVRTVTSV [RASL11B, Q9BPW5] gave a pKd of 4.25.

What follows are binders tested against T6, DVL3, Q92997 (assay: holdup assay). Conditions: plain residues with an end cap or a label only (N-terminal biotin on a linker: ado-ado).
Design: key: below the threshold = too weak to quantify, mostly under pKd 3.1 to 4
In the case of PDGQCTVTEV [RNF146, Q9NTX7], the pKd is reported as “below the threshold”.
With SAKVRTVTSV [RASL11B, Q9BPW5] the pKd was “below the threshold”.

Each binder was assayed against IL16_4, Q14005 (assay: holdup assay). Conditions: plain residues with an end cap or a label only (N-terminal biotin on a linker: ado-ado).
Chain of IL16_4, Q14005 (Q14005 1229-1329): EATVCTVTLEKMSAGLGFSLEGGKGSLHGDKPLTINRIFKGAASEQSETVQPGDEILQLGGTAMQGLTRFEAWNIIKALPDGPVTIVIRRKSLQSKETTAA
Design: key: below the threshold = too weak to quantify, mostly under pKd 3.1 to 4
PDGQCTVTEV [RNF146, Q9NTX7] was tested, and the pKd was “below the threshold”.
With SAKVRTVTSV [RASL11B, Q9BPW5] the pKd was “below the threshold”.

Each binder was assayed against Inadl_1, Q8NI35 (assay: holdup assay). Conditions: plain residues with an end cap or a label only (N-terminal biotin on a linker: ado-ado).
Chain of Inadl_1, Q8NI35 (Q8NI35 113-229): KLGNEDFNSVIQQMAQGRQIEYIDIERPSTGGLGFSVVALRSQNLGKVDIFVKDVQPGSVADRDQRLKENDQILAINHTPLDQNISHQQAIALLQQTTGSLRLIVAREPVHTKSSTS
Design: key: below the threshold = too weak to quantify, mostly under pKd 3.1 to 4
For PDGQCTVTEV [RNF146, Q9NTX7], the pKd was “below the threshold”.
SAKVRTVTSV [RASL11B, Q9BPW5] was tested, and the pKd was “below the threshold”.

The binders below were run against T7, PDZD7_3, Q9H5P4 (assay: holdup assay). Conditions: plain residues with an end cap or a label only (N-terminal biotin on a linker: ado-ado).
Design: key: below the threshold = too weak to quantify, mostly under pKd 3.1 to 4
PDGQCTVTEV [RNF146, Q9NTX7] gave a pKd of 5.09.
Work on SAKVRTVTSV [RASL11B, Q9BPW5] yielded a pKd of 4.68.

The binders below were run against NHERF4_4, Q86UT5 (assay: holdup assay). Conditions: plain residues with an end cap or a label only (N-terminal biotin on a linker: ado-ado).
Chain of NHERF4_4, Q86UT5 (Q86UT5 464-550): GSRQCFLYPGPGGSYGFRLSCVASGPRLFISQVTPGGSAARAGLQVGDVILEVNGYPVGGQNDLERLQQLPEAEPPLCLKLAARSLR
Design: key: below the threshold = too weak to quantify, mostly under pKd 3.1 to 4
In the case of PDGQCTVTEV [RNF146, Q9NTX7], the pKd is reported as 4.02.
SAKVRTVTSV [RASL11B, Q9BPW5] gave a pKd of 3.91.

Each binder was assayed against T8, FRMPD1, Q5SYB0 (assay: holdup assay). Conditions: plain residues with an end cap or a label only (N-terminal biotin on a linker: ado-ado).
Design: key: below the threshold = too weak to quantify, mostly under pKd 3.1 to 4
In the case of PDGQCTVTEV [RNF146, Q9NTX7], the pKd is reported as “below the threshold”.
In the case of SAKVRTVTSV [RASL11B, Q9BPW5], the pKd is reported as “below the threshold”.

What follows are binders tested against T9, LIN7B, Q9HAP6 (assay: holdup assay). Conditions: plain residues with an end cap or a label only (N-terminal biotin on a linker: ado-ado).
Design: key: below the threshold = too weak to quantify, mostly under pKd 3.1 to 4
For PDGQCTVTEV [RNF146, Q9NTX7], the pKd was “below the threshold”.
In the case of SAKVRTVTSV [RASL11B, Q9BPW5], the pKd is reported as “below the threshold”.

The binders below were run against T10, LIN7C, Q9NUP9 (assay: holdup assay). Conditions: plain residues with an end cap or a label only (N-terminal biotin on a linker: ado-ado).
Design: key: below the threshold = too weak to quantify, mostly under pKd 3.1 to 4
In the case of PDGQCTVTEV [RNF146, Q9NTX7], the pKd is reported as “below the threshold”.
In the case of SAKVRTVTSV [RASL11B, Q9BPW5], the pKd is reported as “below the threshold”.

What follows are binders tested against Inadl_6, Q8NI35 (assay: holdup assay). Conditions: plain residues with an end cap or a label only (N-terminal biotin on a linker: ado-ado).
Chain of Inadl_6, Q8NI35 (Q8NI35 1058-1167): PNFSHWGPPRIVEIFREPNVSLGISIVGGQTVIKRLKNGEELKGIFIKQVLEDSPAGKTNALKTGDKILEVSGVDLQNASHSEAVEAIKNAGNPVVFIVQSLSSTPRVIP
Design: key: below the threshold = too weak to quantify, mostly under pKd 3.1 to 4
Binder PDGQCTVTEV [RNF146, Q9NTX7] has a pKd of 3.95.
In the case of SAKVRTVTSV [RASL11B, Q9BPW5], the pKd is reported as “below the threshold”.

What follows are binders tested against Inadl_8, Q8NI35 (assay: holdup assay). Conditions: plain residues with an end cap or a label only (N-terminal biotin on a linker: ado-ado).
Chain of Inadl_8, Q8NI35 (Q8NI35 1425-1530): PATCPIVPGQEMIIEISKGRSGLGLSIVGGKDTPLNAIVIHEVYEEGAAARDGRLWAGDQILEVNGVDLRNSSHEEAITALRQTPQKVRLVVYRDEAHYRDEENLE
Design: key: below the threshold = too weak to quantify, mostly under pKd 3.1 to 4
Binder PDGQCTVTEV [RNF146, Q9NTX7] has a pKd of 4.13.
With SAKVRTVTSV [RASL11B, Q9BPW5] the pKd was 4.43.

What follows are binders tested against MAST2, Q6P0Q8 (assay: holdup assay). Conditions: plain residues with an end cap or a label only (N-terminal biotin on a linker: ado-ado).
Chain of MAST2, Q6P0Q8 (Q6P0Q8 1099-1202): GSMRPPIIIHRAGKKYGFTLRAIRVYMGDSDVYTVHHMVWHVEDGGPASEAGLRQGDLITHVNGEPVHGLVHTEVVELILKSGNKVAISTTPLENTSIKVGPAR
Design: key: below the threshold = too weak to quantify, mostly under pKd 3.1 to 4
PDGQCTVTEV [RNF146, Q9NTX7] gave a pKd of 5.28.
Work on SAKVRTVTSV [RASL11B, Q9BPW5] yielded a pKd of 5.3.

Each binder was assayed against GRID2IP_1, A4D2P6 (assay: holdup assay). Conditions: plain residues with an end cap or a label only (N-terminal biotin on a linker: ado-ado).
Chain of GRID2IP_1, A4D2P6 (A4D2P6 1-87): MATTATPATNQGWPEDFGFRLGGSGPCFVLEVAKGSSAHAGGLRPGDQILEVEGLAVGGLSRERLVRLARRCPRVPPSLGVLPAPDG
Design: key: below the threshold = too weak to quantify, mostly under pKd 3.1 to 4
PDGQCTVTEV [RNF146, Q9NTX7] was tested, and the pKd was “below the threshold”.
With SAKVRTVTSV [RASL11B, Q9BPW5] the pKd was “below the threshold”.

The binders below were run against Inadl_3, Q8NI35 (assay: holdup assay). Conditions: plain residues with an end cap or a label only (N-terminal biotin on a linker: ado-ado).
Chain of Inadl_3, Q8NI35 (Q8NI35 359-469): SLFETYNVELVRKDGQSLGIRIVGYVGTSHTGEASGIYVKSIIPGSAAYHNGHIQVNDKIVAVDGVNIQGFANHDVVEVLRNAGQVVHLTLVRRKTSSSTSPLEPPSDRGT
Design: key: below the threshold = too weak to quantify, mostly under pKd 3.1 to 4
Work on PDGQCTVTEV [RNF146, Q9NTX7] yielded a pKd of 4.11.
For SAKVRTVTSV [RASL11B, Q9BPW5], the pKd was “below the threshold”.

The binders below were run against T11, LNX2_3, Q8N448 (assay: holdup assay). Conditions: plain residues with an end cap or a label only (N-terminal biotin on a linker: ado-ado).
Design: key: below the threshold = too weak to quantify, mostly under pKd 3.1 to 4
In the case of PDGQCTVTEV [RNF146, Q9NTX7], the pKd is reported as “below the threshold”.
In the case of SAKVRTVTSV [RASL11B, Q9BPW5], the pKd is reported as “below the threshold”.

The binders below were run against FRMPD2_1, Q68DX3 (assay: holdup assay). Conditions: plain residues with an end cap or a label only (N-terminal biotin on a linker: ado-ado).
Chain of FRMPD2_1, Q68DX3 (Q68DX3 770-861): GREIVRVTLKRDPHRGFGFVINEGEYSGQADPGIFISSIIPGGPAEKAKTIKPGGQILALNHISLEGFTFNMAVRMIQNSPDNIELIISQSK
Design: key: below the threshold = too weak to quantify, mostly under pKd 3.1 to 4
In the case of PDGQCTVTEV [RNF146, Q9NTX7], the pKd is reported as “below the threshold”.
With SAKVRTVTSV [RASL11B, Q9BPW5] the pKd was “below the threshold”.

These binders were tested against LNX1_3, Q8TBB1 (assay: holdup assay). Conditions: plain residues with an end cap or a label only (N-terminal biotin on a linker: ado-ado).
Chain of LNX1_3, Q8TBB1 (Q8TBB1 500-596): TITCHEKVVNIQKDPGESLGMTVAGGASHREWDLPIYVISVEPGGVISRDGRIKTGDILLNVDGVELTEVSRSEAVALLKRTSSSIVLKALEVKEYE
Design: key: below the threshold = too weak to quantify, mostly under pKd 3.1 to 4
With PDGQCTVTEV [RNF146, Q9NTX7] the pKd was “below the threshold”.
In the case of SAKVRTVTSV [RASL11B, Q9BPW5], the pKd is reported as “below the threshold”.

The binders below were run against MAGI2_5, Q86UL8 (assay: holdup assay). Conditions: plain residues with an end cap or a label only (N-terminal biotin on a linker: ado-ado).
Chain of MAGI2_5, Q86UL8 (Q86UL8 915-1017): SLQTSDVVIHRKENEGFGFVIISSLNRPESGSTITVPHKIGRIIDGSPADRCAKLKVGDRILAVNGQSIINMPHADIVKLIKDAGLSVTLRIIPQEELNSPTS
Design: key: below the threshold = too weak to quantify, mostly under pKd 3.1 to 4
PDGQCTVTEV [RNF146, Q9NTX7] showed a pKd of 4.47.
In the case of SAKVRTVTSV [RASL11B, Q9BPW5], the pKd is reported as “below the threshold”.
